Data on seven substances can be found in paper PMC6237974.

One series has as its target VgrS sensor. Briefly: SPR. For orientation: Surface plasmon resonance follows binding to a sensor surface in real time, without labels.
In series [1] the target is VgrS sensor (Xanthomonas campestris pv. campestris 8004). Briefly: SPR; Biacore 3000, VgrS sensor trapped on a CM5 chip, Prc forms injected at 30 μl/min, 25 °C, PBST pH 7.4.
Series [2] shares this target. In words: MST; VgrS sensor labelled with NT-647, titrated with Prc forms in NTA buffer (300 mM NaCl, 50 mM sodium phosphate, pH 7.0) with 0.05% Tween; Monolith NT.115; three replicates.
Series [3] deals with Prc^S475A monomer (Xanthomonas campestris pv. campestris 8004). In words: SEC + AUC; Prc^S475A separated by gel filtration; sedimentation velocity of each peak at 20 °C, sodium phosphate buffer pH 8.0 plus 150 mM NaCl.
The target of series [4] is cytoplasmic region of VgrS that contained the HAMP and transmitter regions (Xanthomonas campestris pv. campestris 8004). In words: not stated; Supplementary Fig. 4b and 4c; Prc with the cytoplasmic region of VgrS.
Series [5] relates to VgrR-P (phosphorylated by VgrS + ATP) (Xanthomonas campestris pv. campestris 8004). Briefly: MST. As to conditions: MST: 50 mM Tris-HCl pH 7.4, 150 mM NaCl, 10 mM MgCl2, 0.05% Tween-20; EMSA: 10 mM Tris-HCl pH 7.5, 50 mM KCl, 1 mM DTT, 50 ng poly(dI:dC), 10 mM EDTA, 28 C. Background: In EMSA bound probe runs differently from free probe, usually more slowly.

The koff is the rate constant with which the complex falls apart. Low values mean a long-lived complex, high ones a short-lived complex. In the series with VgrS sensor (enzyme), Prc^S475A monomer registered a Ka of 29500 M⁻¹ and a koff of 0.00842 s⁻¹. Broadly, the Kd is a measure of binding affinity in units of concentration. The term stoichiometry N denotes a count of units in the complex or per binding partner. As to Prc^S475A monomer (enzyme), the Kd came to 33.9 µM in series [1] and 0.65 µM in series [2]. For the same substance, in series [3], the stoichiometry N was 3. On to PrcΔPDZ^S475A (enzyme), for which the Kd in series [2] was found to be 1.95 µM. On to “Prc (form not told, binding to the cytoplasmic region of VgrS) (enzyme)”, for which the Kd in series [4] is 191 µM. For the substance PXC_3300 promoter probe, the Kd in series [5] is 30.7 µM.

In the series with VgrS sensor (domain or fragment), “recombinant Prc^S475A containing peptidase and DUF regions” displayed a Ka of 44700 M⁻¹. For “recombinant Prc^S475A containing peptidase and DUF regions (domain or fragment)”, the figures for the Kd in series [1] and in series [2] were 22.4 µM and 0.27 µM, respectively.
